Reference: the supplement of paper PMC10567573

B1: KCNK9 (parent)
chain: DVPDLQSVCSCTCYRSQDYGGRSV
B2: INTS3 (parent)
chain: KKREFRFHPIKETVVEEPVDITPY

Variants of: B1
Assay: protein stability index of a GFP-peptide fusion (GPS, HEK-293T) (PSI 1-6); higher = more stable
Conditions: c terminus: a fixed tail appended
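Also: lentivirally expressed fusions sorted by FACS into six bins by GFP to DsRed ratio, PSI derived from sequencing read proportions per bin multiplied by bin number.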

Row | Variant | protein stability index
1 | S23Y | 2.59
2 | S23Q | 2.12
3 | S23V | 1.32
4 | S23R | 1.48
5 | S23W | 2.53
6 | V24P | 2.35
7 | V24F | 1.13
8 | V24I | 2.37
9 | V24C | 1.49
10 | V24E | 2.15
11 | V24T | 2.73
12 | V24L | 2.44
13 | V24D | 2.69
14 | V24Q | 1.72
15 | V24K | 1.45
16 | V24H | 1.64
17 | V24N | 2.5
18 | V24W | 2.42
19 | V24A | 1.68
20 | V24Y | 1.49
21 | V24S | 1.68

Variants of: B2
Assay: as above
Conditions: c terminus: a fixed tail appended

Row | Variant | protein stability index
22 | R3P | 1.66
23 | R3T | 1.73
24 | R3V | 1.92
25 | R3D | 2.84
26 | R3W | 1.44
27 | R3M | 1.43
28 | R3C | 2.35
29 | R3L | 1.61
30 | R3I | 2.25
31 | R3A | 1.82
32 | R3Y | 2.25
33 | R3F | 1.62
34 | R3E | 2.74
35 | R3Q | 1.89
36 | R3N | 1.76
37 | R3S | 1.66
38 | R3G | 1.72
39 | R3H | 2.14
40 | R3K | 2.46
41 | K1N | 1.94
42 | K1W | 2.1
43 | K1Q | 1.97
44 | K1V | 2.74
45 | K1P | 1.66
46 | K1L | 2.25

Row | Variant | protein stability index
47 | K1F | 2.04
48 | K1I | 1.65
49 | K1S | 1.8
50 | K1E | 2.27
51 | K1H | 1.73
52 | K1R | 1.84
53 | K1G | 1.69
54 | K1C | 1.81
55 | K1M | 1.96
56 | K1T | 2.01
57 | K1D | 2.01
58 | K1A | 2.29
59 | K1Y | 2.12
60 | K11T | 1.97
61 | K11D | 2.72
62 | K11C | 2.15
63 | K11S | 2.31
64 | K11W | 1.61
65 | K11F | 2.56
66 | K11H | 2.04
67 | K11E | 2.5
68 | K11M | 2.64
69 | K11L | 2.72
70 | K11Y | 2.7
71 | K11G | 2.04

Row | Variant | protein stability index
72 | K11A | 1.82
73 | K11N | 1.71
74 | K11Q | 1.82
75 | K11R | 1.88
76 | K11V | 2.36
77 | K11I | 1.85
78 | K11P | 2.33
79 | K2R | 2.29
80 | K2E | 2.55
81 | K2W | 2.03
82 | K2H | 1.67
83 | K2Q | 2.17
84 | K2S | 2.38
85 | K2A | 1.56
86 | K2T | 2.14
87 | K2M | 2.2
88 | K2N | 1.82
89 | K2G | 2.11
90 | K2Y | 1.6
91 | K2L | 1.83
92 | K2F | 2.08
93 | K2I | 2.55
94 | K2D | 2.53
95 | K2V | 1.37
96 | K2P | 2.5

Row | Variant | protein stability index
97 | K2C | 1.9
98 | P9Y | 1.99
99 | P9T | 2.42
100 | P9N | 3.02
101 | P9H | 2.83
102 | P9I | 2.18
103 | P9M | 2.17
104 | P9C | 2.03
105 | P9K | 2.59
106 | P9G | 2.5
107 | P9E | 3.18
108 | P9Q | 2.17
109 | P9V | 2.63
110 | P9R | 2.3
111 | P9D | 3.8
112 | P9A | 2.5
113 | P9L | 1.9
114 | P9S | 2.04
115 | P9W | 1.81
116 | P9F | 2.17
117 | V15H | 1.82
118 | V15G | 1.49
119 | V15W | 1.53
120 | V15T | 1.75
121 | V15Q | 2

Row | Variant | protein stability index
122 | V15C | 1.68
123 | V15Y | 1.84
124 | V15E | 2.41
125 | V15M | 2.13
126 | V15F | 1.91
127 | V15K | 1.39
128 | V15R | 1.98
129 | V15L | 1.73
130 | V15I | 1.67
131 | V15D | 2.35
132 | V15P | 2.13
133 | V15N | 1.75
134 | V15S | 1.58
135 | V15A | 2.01
136 | I10L | 1.75
137 | I10D | 2.28
138 | I10C | 1.51
139 | I10P | 1.9
140 | I10Y | 4.54
141 | I10S | 1.64
142 | I10E | 2.4
143 | I10T | 2.27
144 | I10M | 1.87
145 | I10F | 2.69
146 | I10H | 2.09

Row | Variant | protein stability index
147 | I10W | 3.25
148 | I10K | 2.02
149 | I10N | 2.84
150 | I10A | 2.08
151 | I10R | 1.41
152 | I10Q | 1.83
153 | I10G | 2.3
154 | I10V | 1.98
155 | V14L | 1.82
156 | V14H | 1.89
157 | V14E | 1.95
158 | V14Q | 3.65
159 | V14C | 1.98
160 | V14S | 3.05
161 | V14G | 1.63
162 | V14Y | 1.89
163 | V14K | 1.53
164 | V14R | 1.35
165 | V14D | 2.58
166 | V14P | 1.64
167 | V14W | 1.91
168 | V14I | 1.91
169 | V14T | 1.42
170 | V14A | 1.52
171 | V14M | 2.19

Row | Variant | protein stability index
172 | V14F | 1.71
173 | V14N | 1.99
174 | F7L | 4.21
175 | F7A | 4.76
176 | F7T | 4.79
177 | F7P | 4.58
178 | F7H | 4.63
179 | F7K | 4.39
180 | F7Y | 2.84
181 | F7I | 4.23
182 | F7M | 4.4
183 | F7S | 4.74
184 | F7Q | 4.24
185 | F7C | 4.26
186 | F7R | 4.6
187 | F7W | 3.25
188 | F7E | 4.62
189 | F7V | 4.65
190 | F7N | 4.91
191 | F7G | 4.71
192 | F7D | 4.43
193 | R6F | 2.57
194 | R6W | 2.55
195 | R6T | 4.38
196 | R6N | 4.25

Row | Variant | protein stability index
197 | R6L | 4.15
198 | R6M | 4.02
199 | R6E | 4.48
200 | R6A | 3.97
201 | R6P | 4.38
202 | R6C | 3.87
203 | R6K | 4.23
204 | R6V | 3.49
205 | R6D | 4.24
206 | R6G | 4.57
207 | R6Q | 4.23
208 | R6Y | 3.66
209 | R6I | 4.01
210 | R6H | 4.52
211 | R6S | 4.31
212 | H8Q | 3.45
213 | H8V | 2.49
214 | H8I | 2.8
215 | H8F | 3.49
216 | H8L | 3.97
217 | H8E | 3.55
218 | H8S | 3.54
219 | H8Y | 3.43
220 | H8D | 4.47
221 | H8M | 3.79

Row | Variant | protein stability index
222 | H8R | 4.07
223 | H8W | 3.41
224 | H8G | 3.93
225 | H8P | 4.58
226 | H8N | 3.96
227 | H8C | 3.25
228 | H8T | 3.34
229 | H8A | 3.27
230 | H8K | 4.01
231 | F5C | 4.39
232 | F5Q | 4.37
233 | F5T | 4.52
234 | F5A | 4.36
235 | F5W | 2.56
236 | F5D | 4.4
237 | F5G | 4.34
238 | F5V | 4.63
239 | F5L | 4.01
240 | F5N | 4.53
241 | F5E | 4.8
242 | F5M | 4.36
243 | F5P | 4.18
244 | F5H | 4.36
245 | F5Y | 3.92
246 | F5I | 4.06

Row | Variant | protein stability index
247 | F5R | 4.56
248 | F5S | 4.45
249 | F5K | 4.75
250 | T13I | 1.58
251 | T13H | 2.06
252 | T13M | 1.57
253 | T13E | 2.39
254 | T13V | 2.12
255 | T13Y | 3.62
256 | T13A | 1.92
257 | T13G | 2.33
258 | T13F | 1.54
259 | T13D | 2.19
260 | T13L | 1.43
261 | T13Q | 1.96
262 | T13R | 1.79
263 | T13C | 2.38
264 | T13S | 1.55
265 | T13P | 1.75
266 | T13N | 1.63
267 | T13K | 1.96
268 | T13W | 2.56
269 | E4H | 1.9
270 | E4Y | 1.81
271 | E4V | 1.27

Row | Variant | protein stability index
272 | E4A | 2.29
273 | E4M | 2.04
274 | E4I | 2.05
275 | E4L | 1.79
276 | E4D | 2.06
277 | E4F | 1.94
278 | E4W | 1.41
279 | E4P | 2.62
280 | E4G | 1.54
281 | E4S | 1.33
282 | E4T | 2.07
283 | E4C | 3.03
284 | E4N | 1.48
285 | E4Q | 2.36
286 | E4K | 2.79
287 | E4R | 2.86
288 | E17C | 1.97
289 | E17M | 1.95
290 | E17L | 2.15
291 | E17G | 2.26
292 | E17A | 1.79
293 | E17F | 1.89
294 | E17D | 1.79
295 | E17H | 1.62
296 | E17K | 1.43

Row | Variant | protein stability index
297 | E17I | 2.6
298 | E16P | 2.54
299 | E16M | 1.41
300 | E16A | 1.73
301 | E16L | 1.88
302 | E16R | 2.73
303 | E16G | 2.47
304 | E16H | 1.83
305 | E16D | 2.18
306 | E16T | 2.16
307 | E16Q | 1.86
308 | E16N | 2.39
309 | E16W | 2.1
310 | E16Y | 2.36
311 | E16F | 2.4
312 | E16K | 2.5
313 | E16C | 2.46
314 | E16I | 2.29
315 | E16V | 1.95
316 | E16S | 1.82
317 | E12C | 2.05
318 | E12T | 1.39
319 | E12I | 2.61
320 | E12D | 1.87
321 | E12Y | 2

Row | Variant | protein stability index
322 | E12R | 1.94
323 | E12G | 2.93
324 | E12S | 1.56
325 | E12P | 1.92
326 | E12N | 1.86
327 | E12K | 2.19
328 | E12Q | 2.48
329 | E12F | 2.96
330 | E12A | 1.97
331 | E12L | 3.92
332 | E12M | 2.43
333 | E12H | 2.17
334 | E12W | 2.98
